# According to patent US20260055369A1 (H LEE MOFFITT CANCER CENTER AND RESEARCH INSTITUTE, published 2026):
# T1: hNotch3 (EGF5-12, residues 197-505), biotinylated (human, UniProt Q9UM47 197-505, Biotinylated in vitro by BirA at the C-terminal BAP-tag (tag not in the letters).)
# T1 construct: Immobilised on a streptavidin chip for SPR
# T1 sequence: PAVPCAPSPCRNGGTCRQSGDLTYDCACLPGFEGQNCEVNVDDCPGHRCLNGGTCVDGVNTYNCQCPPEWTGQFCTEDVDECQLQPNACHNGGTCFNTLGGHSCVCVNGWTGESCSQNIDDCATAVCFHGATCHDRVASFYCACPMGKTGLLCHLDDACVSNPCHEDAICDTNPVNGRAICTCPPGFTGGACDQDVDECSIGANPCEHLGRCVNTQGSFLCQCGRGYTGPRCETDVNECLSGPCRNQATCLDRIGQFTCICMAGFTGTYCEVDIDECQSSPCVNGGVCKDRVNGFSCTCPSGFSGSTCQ
# T2: hNotch4 (EGF7-12, residues 276-511), biotinylated (human, UniProt Q99466 276-511, Biotinylated in vitro by BirA at the C-terminal BAP-tag (tag not in the letters).)
# T2 construct: Immobilised on a streptavidin chip for SPR; also called Notch4 (7-12)
# T2 sequence: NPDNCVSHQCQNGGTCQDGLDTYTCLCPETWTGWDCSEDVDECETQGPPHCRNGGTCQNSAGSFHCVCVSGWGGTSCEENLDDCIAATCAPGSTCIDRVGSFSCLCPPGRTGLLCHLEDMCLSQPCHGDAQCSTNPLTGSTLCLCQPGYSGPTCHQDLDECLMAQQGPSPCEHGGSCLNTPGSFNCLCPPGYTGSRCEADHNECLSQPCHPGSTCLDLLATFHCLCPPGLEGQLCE
# T3: hNotch2 (EGF6-13, residues 221-530), biotinylated (human, UniProt Q04721 221-530, Biotinylated in vitro by BirA at the C-terminal BAP-tag (tag not in the letters).)
# T3 construct: Immobilised on a streptavidin chip for SPR
# T3 sequence: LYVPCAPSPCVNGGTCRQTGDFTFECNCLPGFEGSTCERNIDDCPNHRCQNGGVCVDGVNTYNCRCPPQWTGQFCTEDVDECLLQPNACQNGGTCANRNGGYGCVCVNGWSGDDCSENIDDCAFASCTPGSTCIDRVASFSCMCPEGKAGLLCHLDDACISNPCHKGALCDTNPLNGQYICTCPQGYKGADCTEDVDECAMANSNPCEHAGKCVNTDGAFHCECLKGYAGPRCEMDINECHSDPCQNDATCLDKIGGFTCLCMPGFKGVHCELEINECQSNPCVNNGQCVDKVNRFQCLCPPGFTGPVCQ
# T4: mouse Notch1 (EGF6-13, residues 221-526), biotinylated (mouse, UniProt Q01705 221-526, Biotinylated in vitro by BirA at the C-terminal BAP-tag (tag not in the letters).)
# T4 construct: Immobilised on a streptavidin chip for SPR; also called mNotch1 EGF6-13; mNotch1 (6-13)
# T4 sequence: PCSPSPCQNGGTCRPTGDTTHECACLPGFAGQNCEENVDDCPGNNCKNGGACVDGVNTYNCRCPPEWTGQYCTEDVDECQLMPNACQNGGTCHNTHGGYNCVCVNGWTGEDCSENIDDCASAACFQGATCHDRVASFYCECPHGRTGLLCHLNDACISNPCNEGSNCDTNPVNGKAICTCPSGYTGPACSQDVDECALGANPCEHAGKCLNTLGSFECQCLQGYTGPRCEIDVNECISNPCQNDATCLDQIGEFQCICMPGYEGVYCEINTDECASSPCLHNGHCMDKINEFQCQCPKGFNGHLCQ
# B1: Delta^MAX (N-EGF5), non-biotinylated (ligand)
# chain: SSVFQLQLQEFINERGVLASGRPCEPGCRTFFRVCLKHFQAVVSPGPCTFGTVSTPVLGTNSFAVRDDSSGGGRNPLQLPLNFTWPGTFSLIIEAWHAPGDDLRPEALPPDALISKFAIQGSLAVGQNWLLDEQTSTLTRLRYSYRVICSDNYYGDNCSRLCKKRNDYFGHYVCQPDGNPSCLPGWTGEYCQQPICLSGCHEQNGYCSKPAECLCRPGWQGRLCNECIPHPGCRHGTCSTPWQCLCDEGWGGLYCDQDLNYCTHHSPCKNGATCRNSGPRSYTCTCRPGYTGVDCELELSECDSNPCRNGGSCKDQEDGYHCLCPPGYYGLHCEHSTLSCADSPCFNGGSCRERNQGANYACECPPNFTGSNCEHHHHHHHH
# notes: also called DLL4^MAX; soluble Delta^MAX
# Columns and labels:
# [1] = target: T1, hNotch3 (EGF5-12, residues 197-505), …; experiment: SPR, KD of Delta^MAX against KD of WT DLL4
# Protocol: (§1) Surface plasmon resonance (SPR) was used to determine the binding affinity between Delta^MAX and the ligand-binding regions of Notch1-4. As a basis for comparison, a WT DLL4 construct, a DLL4.v2 construct, and a “DLL4.v1” construct containing the five E12 mutations (G28S, F107L, N118I, H194Y, and L206P) were also generated (FIG. 2A, 10). […] The rapid dissociation of WT DLL4 precluded kinetic fitting of the binding data.
# (§2) Equilibrium dissociation constants were determined by surface plasmon resonance using a Biacore T200 instrument (GE Healthcare). Approximately 100 resonance units (RU) of biotinylated Notch extracellular fragments (Notch1 (EGF6-13), Notch2 (EGF6-13), Notch3 (EGF5-12), Notch4 (7-12), and mouse Notch1 (EGF6-13)) were immobilized on individual flow cells at 5 μl/min using a streptavidin-coated sensor chip (Series S Sensor chip SA, GE Healthcare). Three-fold serial dilutions of recombinant DLL4 proteins (N-EGF5) starting at 50 μM (WT DLL4), 18 μM (DLL4.v2), and 6 μM (DLL4.v1 and Delta^MAX) were flowed over the chip at 25° C. in SPR buffer (20 mM HEPES pH 7.4, 150 mM NaCl, 1 mM calcium chloride, 0.1% BSA supplemented with 0.005% surfactant P20). Association (“on-rate”) and dissociation (“off-rate”) phases were performed at 10 μl/min for 120 seconds and 300 seconds, respectively. […] Data collection rate was performed at 10 Hz, and curves were reference-subtracted from a flow cell containing 100 RU of a negative control non-related protein (biotinylated mouse RNF43 PA domain).
# [2] = target: T2, hNotch4 (EGF7-12, residues 276-511), …; experiment: SPR, KD of Delta^MAX against KD of WT DLL4
# Protocol: as §1, §2
# [3] = target: T3, hNotch2 (EGF6-13, residues 221-530), …; experiment: SPR, KD of Delta^MAX against KD of WT DLL4
# Protocol: as §1, §2
# [4] = target: Notch1 on U2OS hNotch1-Gal4 luciferase reporter cells (human, UniProt P46531 19-2555); experiment: cell-based or functional assay
# Chain of Notch1 on U2OS hNotch1-Gal4 luciferase reporter cells (P46531 19-2555): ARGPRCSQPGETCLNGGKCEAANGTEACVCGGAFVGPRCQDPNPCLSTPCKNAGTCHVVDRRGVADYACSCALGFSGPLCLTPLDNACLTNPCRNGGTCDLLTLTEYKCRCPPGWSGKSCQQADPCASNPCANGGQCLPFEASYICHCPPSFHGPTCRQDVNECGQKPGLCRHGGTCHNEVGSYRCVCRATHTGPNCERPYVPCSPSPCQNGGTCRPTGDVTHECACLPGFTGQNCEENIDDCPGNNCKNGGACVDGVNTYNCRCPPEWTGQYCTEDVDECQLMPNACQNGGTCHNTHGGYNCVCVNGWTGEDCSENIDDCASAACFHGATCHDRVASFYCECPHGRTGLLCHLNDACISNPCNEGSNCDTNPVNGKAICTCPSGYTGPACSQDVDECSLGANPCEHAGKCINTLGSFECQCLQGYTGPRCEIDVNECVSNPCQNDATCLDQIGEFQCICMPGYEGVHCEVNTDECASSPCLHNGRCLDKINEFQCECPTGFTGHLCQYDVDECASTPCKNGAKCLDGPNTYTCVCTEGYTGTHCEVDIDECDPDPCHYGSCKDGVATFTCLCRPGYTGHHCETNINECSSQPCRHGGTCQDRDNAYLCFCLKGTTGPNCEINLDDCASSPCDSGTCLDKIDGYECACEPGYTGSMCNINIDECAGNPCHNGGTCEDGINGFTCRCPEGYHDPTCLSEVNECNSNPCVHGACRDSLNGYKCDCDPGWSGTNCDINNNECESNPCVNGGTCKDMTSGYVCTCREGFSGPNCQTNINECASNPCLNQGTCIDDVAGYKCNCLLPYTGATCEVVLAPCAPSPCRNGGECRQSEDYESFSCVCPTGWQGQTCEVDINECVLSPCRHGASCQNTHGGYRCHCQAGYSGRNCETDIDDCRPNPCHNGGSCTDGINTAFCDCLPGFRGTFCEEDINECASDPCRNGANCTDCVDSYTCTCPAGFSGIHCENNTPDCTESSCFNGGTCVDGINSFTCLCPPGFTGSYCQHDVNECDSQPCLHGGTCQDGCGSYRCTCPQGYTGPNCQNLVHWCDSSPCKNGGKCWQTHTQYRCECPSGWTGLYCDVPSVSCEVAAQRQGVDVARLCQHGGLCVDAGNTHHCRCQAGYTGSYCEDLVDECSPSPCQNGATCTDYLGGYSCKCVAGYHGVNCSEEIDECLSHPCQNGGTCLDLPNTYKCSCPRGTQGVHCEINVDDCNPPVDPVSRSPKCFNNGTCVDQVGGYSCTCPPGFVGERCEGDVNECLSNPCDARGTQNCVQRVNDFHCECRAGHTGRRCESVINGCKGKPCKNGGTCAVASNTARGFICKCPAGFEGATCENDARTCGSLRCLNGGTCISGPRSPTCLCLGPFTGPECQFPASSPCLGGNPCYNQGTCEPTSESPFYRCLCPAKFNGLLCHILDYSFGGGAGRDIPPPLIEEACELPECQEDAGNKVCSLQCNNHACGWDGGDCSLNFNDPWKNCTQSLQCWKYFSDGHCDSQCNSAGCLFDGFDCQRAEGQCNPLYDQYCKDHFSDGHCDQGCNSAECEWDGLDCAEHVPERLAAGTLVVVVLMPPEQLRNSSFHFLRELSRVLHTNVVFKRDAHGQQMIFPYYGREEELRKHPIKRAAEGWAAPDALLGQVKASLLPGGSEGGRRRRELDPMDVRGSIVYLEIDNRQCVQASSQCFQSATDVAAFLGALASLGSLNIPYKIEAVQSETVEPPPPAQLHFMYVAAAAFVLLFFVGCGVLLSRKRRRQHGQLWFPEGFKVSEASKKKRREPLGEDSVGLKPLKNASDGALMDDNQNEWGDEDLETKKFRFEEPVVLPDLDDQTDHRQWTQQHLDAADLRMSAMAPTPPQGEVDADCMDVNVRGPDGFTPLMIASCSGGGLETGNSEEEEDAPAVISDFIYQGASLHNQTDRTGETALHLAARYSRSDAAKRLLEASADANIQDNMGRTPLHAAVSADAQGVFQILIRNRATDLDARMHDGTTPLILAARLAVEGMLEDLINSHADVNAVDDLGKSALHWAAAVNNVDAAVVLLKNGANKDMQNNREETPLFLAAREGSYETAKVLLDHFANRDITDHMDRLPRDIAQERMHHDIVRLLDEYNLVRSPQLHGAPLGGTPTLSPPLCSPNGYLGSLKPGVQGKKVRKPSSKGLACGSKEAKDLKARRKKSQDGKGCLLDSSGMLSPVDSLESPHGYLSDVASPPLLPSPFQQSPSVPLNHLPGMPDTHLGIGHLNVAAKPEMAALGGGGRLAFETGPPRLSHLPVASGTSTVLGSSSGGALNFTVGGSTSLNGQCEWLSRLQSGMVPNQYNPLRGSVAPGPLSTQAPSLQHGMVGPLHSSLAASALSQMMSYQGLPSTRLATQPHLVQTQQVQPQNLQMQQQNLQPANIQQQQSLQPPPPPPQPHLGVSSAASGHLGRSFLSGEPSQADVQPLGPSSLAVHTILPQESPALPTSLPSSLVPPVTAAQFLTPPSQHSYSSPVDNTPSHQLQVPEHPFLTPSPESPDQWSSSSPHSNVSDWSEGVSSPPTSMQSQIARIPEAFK
# [5] = target: T4, mouse Notch1 (EGF6-13, residues …); experiment: SPR steady-state binding isotherm, biotinylated mNotch1 (EGF6-13) on a streptavidin chip, DLL4 variant as analyte, response normalized to the maximum (100%)
# Source text: Extended Data FIG. 5. Quantitation of mNotch1 binding to DLL4 variants, ligand adsorption, and Notch surface expression. a, SPR binding isotherms were fitted to a 1:1 binding model to determine the binding affinity between mNotch1 (6-13) and each DLL4 variant. b, Determination of plate adsorption for WT DLL4 and Delta^MAX by ELISA. Data represent mean values±s.d. of three biological replicates. c, Binding assay of WT DLL4 and Delta^MAX tetramers to Notch1 overexpressing CHO-K1 N1-Gal4 cells was measured by flow cytometry. Data represent mean values±s.d. of three biological replicates. d, The level of Notch1 expression on the surface of cell lines used in this study was determined by flow cytometry. Data represent mean values±s.d. of three biological replicates. e, Percentage of CD8⁺ T cells expressing Notch1 (upper graph) and Notch2 (bottom graph) on cell surface determined by flow cytometry after stimulation with K32-WT DLL4, K32-Delta^MAX, or K32 for 96 hours. Data represent mean values±s.e.m. of three biological replicates. Delta^MAX statistics are referred to WT DLL4. *P<0.05, ****P<0.0001 (Two-way ANOVA).
# Equilibrium dissociation constants were determined by surface plasmon resonance using a Biacore T200 instrument (GE Healthcare). […]
binder,measurement,setting,value
B1,fold enhancement of affinity compared to WT DLL4,[1],591 fold
same,fold enhancement of affinity compared to WT DLL4,[2],532 fold
same,fold enhancement of affinity compared to WT DLL4,[3],670 fold
same,"increase in Notch1 activation relative to control, non-specific adsorption",[4],23 fold
same,EC50 (read off the curve),[5],~20 nM
